In publication PMC10872345:

Experiments:
[1] = molecular target: Biotinylated human E-cadherin K14E mutant ectodomains (human); test: single-molecule AFM force spectroscopy
[2] = molecular target: Biotinylated human E-cadherin ectodomains (EC1-5), wild type (human); test: single-molecule AFM force spectroscopy

Substance	average unbinding force [1] [pN]	unbinding force, lower peak (un-strengthened, with 40 nM 66E8 Fab) [1] [pN]	unbinding force, second peak (strengthened, with 40 nM 66E8 Fab) [1] [pN]	peak unbinding force [2] [pN]	unbinding force, lower peak (un-strengthened, with 40 nM 66E8) [2] [pN]	unbinding force, second peak (strengthened, with 40 nM 66E8) [2] [pN]
Biotinylated human E-cadherin K14E mutant ectodomains (domain or fragment)	42.8	39.4	62.3	–	–	–
Biotinylated human E-cadherin ectodomains (EC1-5), wild type (domain or fragment)	–	–	–	48.3	45.2	63.3
